This is an account of results in article doi:10.1101/2022.05.06.490478 (bioRxiv, 2022).

The data set “single molecule pulldown” concerns the molecule itself. Briefly: single molecule pulldown.
The data set “cryo-EM structure” concerns the molecule itself. Briefly: cryo-EM structure.

B1: C. elegans TMC-1 with C-terminal 3C site-mVenus-3xFLAG (tmc-1::mVenus knock-in) (natural protein, UniProt D3KZG3 1-1285, looked up)
chain: MQEAARRASLRKEHTPTNEKFGDLSKQDSLGERASSKLTLDDELYDILYAFGETDAFINKGDKQRETDEDGNPLTRQALLERIRQKKEVIGKLRCQAWSMTRKRRTLKLAQKYLEQHESKVSRSHLYMEEMRKRARLMKRSFSNFKTYLIPWESKIKRIESHFGSVVSSYFTFLRWIVFVNIMITLIALVFVVLPETLADSVANEGRFNRTKTRKQIPANERVHADELAVVWHYDGYLRYSPLFYGYYSDDPFLGNKIKYALPLAYFMVTLTIFAYSFFAILRKMAANARMSKLSGSKAEQYIFNWKLFTGWDYTIGNSETASNTVMAVVIKLRESIADIKKDAHGKFRLLQFSLRVFANIIICAMLGFSIYCIIFAVQKSQVQDDGNLFTKNQVPSVVSTITHVFPMIFDLIGKMENYHPRTALRAHLGRVLILYTVNYITLIFALFEKMTALRDRVNSTSTSSSHRTKRQQGGWNPNMQRPPPYASRAEVRQMSDFLAANTRRFQTVSQRTTRSVTTPFTVAPQFGPFNVNNPNAVFHNGTHSTSFESQILGPKALPIFTPPPRKYPGFTPGNVGQQFGGPDFPRNQVYTKSTPLPRVRTKPPWVYTTTHPPLVQNRAMTTTMSKSAKKGNSKNLDDDILLSNETIQMSEAALRRNHDGHNNDICWETIIGQEIVKLVTMDLIFTILSILVIDLFRGLWIKYCSSWWCWDIETTFPEYGEFKVAENVLHIINNQGMIWLGLFFAPLLPAINNIKLIILMYIRGWAVMTCNVPAREIFRASRSSNFYLGILLIWLLLCTLPVGFVIASMSPSRSCGPFARYQHFYTVVTREIEKRVDQTVLSYIRHIASPGVVIPIILFLILIIYFLFSLVRGLREANTDLQAQLVHERTEEKKKIFELAGGKKNKFEKDRDKKRSNDYIPLIEQRRREPWRQYHEMEADHALASDSSEESDINEDEDDERQPLTAYPLRAIETPPETLQVTAFHPSLGSLIENREMEDEESASGDQLPMIHKSVSFQGPSHMQMRQSISTESCSQISRSAIQVATPEEIRALLRPYLEAKYGIPYQHGIKSFPIDVHTPPNNTPSRRSSKYNSFVSLYEHTRDDHKNFVASTIKETDEDPGKSDKKQTSSKDVAPDFMPWPSADEARALREKMKSKTPLMLTKTTVEEKPKGGKSSESEFRPPVPIHRKYNIQTTEEENEEEETDSAPESSKKRFRISVSPTKTIAPASASRAQHKIVSQASSSSSIPHGRQPDPNKKASLVLPPLRAPRVQFDEDDSPRQID
As to B1, the “stoichiometry N” value in “single molecule pulldown” turned out to be 2.

B2: C. elegans TMC-1 (pore-forming subunit of the native TMC-1 complex), after removal of mVenus-3xFLAG by 3C protease (natural protein, UniProt D3KZG3 1-1285, looked up)
chain: MQEAARRASLRKEHTPTNEKFGDLSKQDSLGERASSKLTLDDELYDILYAFGETDAFINKGDKQRETDEDGNPLTRQALLERIRQKKEVIGKLRCQAWSMTRKRRTLKLAQKYLEQHESKVSRSHLYMEEMRKRARLMKRSFSNFKTYLIPWESKIKRIESHFGSVVSSYFTFLRWIVFVNIMITLIALVFVVLPETLADSVANEGRFNRTKTRKQIPANERVHADELAVVWHYDGYLRYSPLFYGYYSDDPFLGNKIKYALPLAYFMVTLTIFAYSFFAILRKMAANARMSKLSGSKAEQYIFNWKLFTGWDYTIGNSETASNTVMAVVIKLRESIADIKKDAHGKFRLLQFSLRVFANIIICAMLGFSIYCIIFAVQKSQVQDDGNLFTKNQVPSVVSTITHVFPMIFDLIGKMENYHPRTALRAHLGRVLILYTVNYITLIFALFEKMTALRDRVNSTSTSSSHRTKRQQGGWNPNMQRPPPYASRAEVRQMSDFLAANTRRFQTVSQRTTRSVTTPFTVAPQFGPFNVNNPNAVFHNGTHSTSFESQILGPKALPIFTPPPRKYPGFTPGNVGQQFGGPDFPRNQVYTKSTPLPRVRTKPPWVYTTTHPPLVQNRAMTTTMSKSAKKGNSKNLDDDILLSNETIQMSEAALRRNHDGHNNDICWETIIGQEIVKLVTMDLIFTILSILVIDLFRGLWIKYCSSWWCWDIETTFPEYGEFKVAENVLHIINNQGMIWLGLFFAPLLPAINNIKLIILMYIRGWAVMTCNVPAREIFRASRSSNFYLGILLIWLLLCTLPVGFVIASMSPSRSCGPFARYQHFYTVVTREIEKRVDQTVLSYIRHIASPGVVIPIILFLILIIYFLFSLVRGLREANTDLQAQLVHERTEEKKKIFELAGGKKNKFEKDRDKKRSNDYIPLIEQRRREPWRQYHEMEADHALASDSSEESDINEDEDDERQPLTAYPLRAIETPPETLQVTAFHPSLGSLIENREMEDEESASGDQLPMIHKSVSFQGPSHMQMRQSISTESCSQISRSAIQVATPEEIRALLRPYLEAKYGIPYQHGIKSFPIDVHTPPNNTPSRRSSKYNSFVSLYEHTRDDHKNFVASTIKETDEDPGKSDKKQTSSKDVAPDFMPWPSADEARALREKMKSKTPLMLTKTTVEEKPKGGKSSESEFRPPVPIHRKYNIQTTEEENEEEETDSAPESSKKRFRISVSPTKTIAPASASRAQHKIVSQASSSSSIPHGRQPDPNKKASLVLPPLRAPRVQFDEDDSPRQID
modifications: N-linked glycan at N209
In the case of B2, the “stoichiometry N” value in the data set “cryo-EM structure” came out at 2.

The term stoichiometry N denotes the number of molecules, sites or subunits per partner or assembly.
